# Measured values as given in publication PMC11637429.
# Target: 6xHis-FoxR^peri-T192A (purified whole periplasmic region of FoxR with T192A) (P. aeruginosa)
# Experiment: AUC; sedimentation velocity titration: FoxR^peri fixed at 10 μm, FoxA^SD at 1, 2, 5, 10, 20, 40 and 80 μm; sw isotherm (absorbance and interference) globally fitted in SEDPHAT to an A+B <-> AB model; 8°C, 20 mM Tris pH 8.3, 500 mM NaCl, 1 mM DTT, 3% glycerol
substance,measurement,value
6xHis-FoxA^SD (purified signaling domain of FoxA) (from UniProt Q9I116 53-820) (domain or fragment),Kd,4.3 µM
same,stoichiometry N,1
